Reference: article PMC3343115, “Selective Blockade of Trypanosomatid Protein Synthesis by a Recombinant Antibody Anti-Trypanosoma cruzi P2β Protein” (PLoS ONE, 2012)

How the values were obtained:
[1] = target: T. cruzi ribosomal P0 protein (Trypanosoma cruzi, strain  in …, UniProt P26796); test: cell-based or functional assay
[2] = target: T1, TcP2β-GST fusion protein (Trypanosoma cruzi ribosomal P2β protein) (Trypanosoma cruzi, strain , UniProt P26795); test: SPR; competition on BIACORE 3000: TcP2β-GST immobilised by amine coupling at 0.05 pmol/mm2; scFv C5 pre-incubated 30 min with different concentrations of peptide, injected 2 min, 3 min dissociation, 30 µl/min; HBS-EP buffer pH 7.4, 150 mM NaCl; IC50 from the decrease in the initial linear kinetics; conditions: both partners purified
T1 construct: Trypanosoma cruzi ribosomal P2β protein (TcP2β), recombinant; also called recombinant TcP2β protein

[3] = target: T2, P015 peptide (C-terminal region of T. cruzi P0) (Trypanosoma cruzi, UniProt P26796); test: as above; conditions: both partners purified
T2 construct: C-terminal region of the Trypanosoma cruzi ribosomal P0 protein (TcP0), called P015; aspartic acid in place of glycine 8 of R13; source: synthetic peptide
T2 chain: EEEDDDDDFGMGALF

[4] = target: T3, R13 peptide (C-terminal epitope of T. cruzi P1α, P1β, P2α and P2β) (Trypanosoma cruzi); test: as above; conditions: both partners purified
T3 construct: the text prints only the motif 3-EdDDmGF-9; the peptide is also in PDB 3SGE; source: synthetic peptide
T3 chain: EEEDDDMGFGLFD

Chain of T. cruzi ribosomal P0 protein (P26796 whole entry, looked up, the tested form may be a part): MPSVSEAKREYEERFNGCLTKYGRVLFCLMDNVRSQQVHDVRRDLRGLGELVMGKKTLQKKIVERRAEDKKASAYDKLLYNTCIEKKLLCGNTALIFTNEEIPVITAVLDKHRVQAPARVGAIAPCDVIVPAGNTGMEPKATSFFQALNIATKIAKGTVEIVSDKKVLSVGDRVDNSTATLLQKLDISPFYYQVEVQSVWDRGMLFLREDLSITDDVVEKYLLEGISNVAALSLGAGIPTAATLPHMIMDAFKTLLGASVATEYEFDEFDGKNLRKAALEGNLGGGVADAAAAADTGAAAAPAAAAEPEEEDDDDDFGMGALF
T1 sequence (P26795 whole entry, the tested form may be a part): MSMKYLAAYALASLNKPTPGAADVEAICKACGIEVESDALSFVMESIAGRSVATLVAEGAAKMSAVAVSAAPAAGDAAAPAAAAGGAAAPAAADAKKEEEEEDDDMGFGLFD

B1: single chain recombinant antibody C5 (scFv C5) (scFv, V domains shown)
VH: EVQLEESGGRLVQPKGSLKLSCAASGFSFNTNAMNWVRQAPGKGLEWVARIRSKINNYSTYYADSVKDRFTISRDDSQSMLYLQMNNLKTEDTAMYYCVRGTTYWGQGTLVTVSA
VL: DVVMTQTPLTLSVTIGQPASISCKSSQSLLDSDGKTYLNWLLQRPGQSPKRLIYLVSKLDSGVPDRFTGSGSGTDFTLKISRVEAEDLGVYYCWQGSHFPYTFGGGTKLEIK
notes: VH of scFv C5, which derives from the parental monoclonal antibody 17.2; heavy chain variable domain of mAb 17.2 in PDB 3SGE (complex with R13) and 3SGD (apo); linker between the variable domains; VL of scFv C5, which derives from the parental monoclonal antibody 17.2; light chain variable domain of mAb 17.2 in PDB 3SGE (complex with R13) and 3SGD (apo); The His tag is known from detection with …
inhibition of in vitro protein synthesis ([35S]-methionine incorporation) by T. cruzi ribosomes (about 130 nM), dose-response of scFv C5, IC50 [1]: ~0.0624 µM
binding result [2]: binds
IC50 [3]: 22.6 ± 2.03 µM
IC50 [4]: 2.37 ± 0.23 µM
